Source: patent US20240271115A1

Biological target: Human IgG in human serum

B1: Recombinant IdeS expressed from codon-optimized cDNA IdeS^op2 (pGEX-IdeS^op2), designated Ab-C (protein)
chain: RKRCYSTSAVVLAAVTLFALSVDRGVIADSFSANQEIRYSEVTPYHVTSVWTKGVTPPAKFTQGEDVFHAPYVANQGWYDITKTFNGKDDLLCGAATAGNMLHWWFDQNKEKIEAYLKKHPDKQKIMFGDQELLDVRKVINTKGDQTNSELFNYFRDKAFPGLSARRIGVMPDLVLDMFINGYYLNVYKTQTTDVNRTYQEKDRRGGIFDAVFTRGDQSKLLTSRHDFKEKNLKEISDLIKKELTEGKALGLSHTYANVRINHVINLWGADFDSNGNLKAIYVTDSDSNASIGMKKYFVGVNSAGKVAISAKEIKEDNIGAQVLGLFTLSTGQDSWNQTN
IgG cleavage, PAGE-Coomassie stain, purified normalized IdeS samples incubated with human serum for 1 h: The results showed more effective IgG cleavage by IdeS^op2
